We go through six molecules from patent publication US20190330321A1 (UCB, published 2019).

Holding throughout (assay): cell-based or functional assay
The target of one test is T1, mature human TGF-beta 2 (human, UniProt P61812 303-414).
T1 sequence: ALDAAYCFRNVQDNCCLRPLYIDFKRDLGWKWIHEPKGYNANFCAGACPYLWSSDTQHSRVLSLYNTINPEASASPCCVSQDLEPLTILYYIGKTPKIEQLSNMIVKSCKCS

The target in a further test is T2, mature human TGF-beta 3 (human, UniProt P10600 301-412).
T2 sequence: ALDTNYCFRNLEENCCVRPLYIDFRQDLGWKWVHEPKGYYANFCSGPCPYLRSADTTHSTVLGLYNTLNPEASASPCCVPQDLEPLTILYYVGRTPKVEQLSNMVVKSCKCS

For the next test, the target named is mature human TGF-beta 1 (human, UniProt P01137 279-390).
mature human TGF-beta 1, sequence (P01137 279-390 limits assumed): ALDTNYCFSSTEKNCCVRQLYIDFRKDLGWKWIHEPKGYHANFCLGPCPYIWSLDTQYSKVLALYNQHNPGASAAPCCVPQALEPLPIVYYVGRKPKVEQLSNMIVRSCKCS
For test [1], the target named is endogenously produced TGF-beta (isoform not given).

Positions count from the first letter of the chain named.

B1: 4856 rabbit Fab (Fab, V domains shown)
VH: QSLEESGGRLVTPGTPLTLTCTASGFSLSSYDMSWVRQAPGKGLEWIGIIYGGSGSTWYASWAKGRFTMSKTSTTVDLKITSPTTEDMATYFCARGRDGGAGGSRNGYSLWGQGTLVTVSS
VL: AYDMTQTPASVEVAVGGTVTIKCQASESIYSGLAWYQQTPGQRPKLLIYAASDLASGVPSRFKGSGSGTEYTLTISGVECADAATYYCQQTWTDGGIDNPFGGGTEVVVKR
As for B1, the results for the “Geomean IC50, HEK-Blue TGF-beta reporter gene assay” value with mature human TGF-beta 2, with mature human TGF-beta 3 and with mature human TGF-beta 1 were 0.3 not clear (head says nM), 24.5 not clear (head says nM) and 1.77 not clear (head says nM), respectively.

B2: antibody 4856 gL3gH13 Fab (humanised) (Fab)
heavy: EVQLVESGGGLVKPGGSLRLSCAASGFSLSSYDMSWVRQAPGKGLEWIGIIYGGSGSTWYASWAKGRFTISRDSAKNSVYLQMNSLRAEDTAVYYCARGRDAGAGGSRNGYSLWGQGTLVTVSSASTKGPSVFPLAPSSKSTSGGTAALGCLVKDYFPEPVTVSWNSGALTSGVHTFPAVLQSSGLYSLSSVVTVPSSSLGTQTYICNVNHKPSNTKVDKKVEPKSC
light: AYDMTQSPSTLSASVGDRVTITCQASESIYSGLAWYQQKPGKAPKLLIYAASDLASGVPSRFSGSGSGTEYTLTISSLQPDDFATYYCQQTWTDGGIDNPFGGGTKVEIKRTVAAPSVFIFPPSDEQLKSGTASVVCLLNNFYPREAKVQWKVDNALQSGNSQESVTEQDSKDSTYSLSSTLTLSKADYEKHKVYACEVTHQGLSSPVTKSFNRGEC
Turning to B2, in test [1], the IC50, Collagen I&III deposition, RPTEC and HRF co-culture, N = 1 stood at 22.4 nM; the IC50, Collagen I&III deposition, RPTEC and HRF co-culture, N = 2 worked out at 48 nM; the IC50, Collagen V deposition, RPTEC and HRF co-culture, N = 1 worked out at 38.9 nM; the IC50, Collagen V deposition, RPTEC and HRF co-culture, N = 2 is 81.6 nM. In test [1], this molecule had an IC50, Fibronectin deposition, RPTEC and HRF co-culture, N = 1 of 32.6 nM; an IC50, Fibronectin deposition, RPTEC and HRF co-culture, N = 2 of 27.1 nM; an IC50 Geo Mean, Collagen I&III deposition, RPTEC and HRF co-culture of 32.8 nM; an IC50 Geo Mean, Collagen V deposition, RPTEC and HRF co-culture of 56.3 nM. In test [1], the IC50 Geo Mean, Fibronectin deposition, RPTEC and HRF co-culture is 29.7 nM; the IC50 geometric mean, BxPC3 and HEK-Blue TGF-beta co-culture assay worked out at 3.95 nM.

B3: antibody 4856 gL3gH23 Fab (humanised) (Fab)
heavy: B2 heavy with G110A
light: B2 light
On to B3, for which the IC50 geometric mean, BxPC3 and HEK-Blue TGF-beta co-culture assay in test [1] was found to be 9.1 nM.

B4: antibody 4856 gL3gH29 Fab (humanised) (Fab)
heavy: B2 heavy with N109D
light: B2 light
For B4, the IC50 geometric mean, BxPC3 and HEK-Blue TGF-beta co-culture assay in test [1] was determined as 3.77 nM.

B5: antibody 4856 gL3gH20 Fab (humanised) (Fab)
heavy: B2 heavy with G49S, I70M, R72K
light: B2 light
On to B5, for which, in test [1], the IC50 geometric mean, BxPC3 and HEK-Blue TGF-beta co-culture assay came out at 4.63 nM.

B6: 4856 rabbit Fab (Fab)
heavy: QSLEESGGRLVTPGTPLTLTCTASGFSLSSYDMSWVRQAPGKGLEWIGIIYGGSGSTWYASWAKGRFTMSKTSTTVDLKITSPTTEDMATYFCARGRDGGAGGSRNGYSLWGQGTLVTVSSGQPKAPSVFPLAPCCGDTPSSTVTLGCLVKGYLPEPVTVTWNSGTLTNGVRTFPSVRQSSGLYSLSSVVSVTSSSQPVTCNVAHPATNTKVDKTV
light: AYDMTQTPASVEVAVGGTVTIKCQASESIYSGLAWYQQTPGQRPKLLIYAASDLASGVPSRFKGSGSGTEYTLTISGVECADAATYYCQQTWTDGGIDNPFGGGTEVVVKRTPVAPTVLIFPPAADQVATGTVTIVCVANKYFPDVTVTWEVDGTTQTTGIENSKTPQNSADCTYNLSSTLTLTSTQYNSHKEYTCKVTQGTTSVVQSFNRGDC
B6 displayed a Geomean IC50, BxPC3-HEK-Blue TGF-beta reporter gene co-culture assay in test [1] of 3.7 nM.
